The results in this text go back to patent US20170166934A1.

The target of data set [1] is Penicillium oxalicum glucoamylase variant PE001 (SEQ ID NO: 14 + K79V substitution) (Penicillium oxalicum). Description: cell-based or functional assay.
Data set [2] deals with wild type Penicillium oxalicum glucoamylase (Penicillium oxalicum). Put plainly: cell-based or functional assay.
The test system of data set [3] is T1, wild type Penicillium oxalicum glucoamylase.
T1 sequence: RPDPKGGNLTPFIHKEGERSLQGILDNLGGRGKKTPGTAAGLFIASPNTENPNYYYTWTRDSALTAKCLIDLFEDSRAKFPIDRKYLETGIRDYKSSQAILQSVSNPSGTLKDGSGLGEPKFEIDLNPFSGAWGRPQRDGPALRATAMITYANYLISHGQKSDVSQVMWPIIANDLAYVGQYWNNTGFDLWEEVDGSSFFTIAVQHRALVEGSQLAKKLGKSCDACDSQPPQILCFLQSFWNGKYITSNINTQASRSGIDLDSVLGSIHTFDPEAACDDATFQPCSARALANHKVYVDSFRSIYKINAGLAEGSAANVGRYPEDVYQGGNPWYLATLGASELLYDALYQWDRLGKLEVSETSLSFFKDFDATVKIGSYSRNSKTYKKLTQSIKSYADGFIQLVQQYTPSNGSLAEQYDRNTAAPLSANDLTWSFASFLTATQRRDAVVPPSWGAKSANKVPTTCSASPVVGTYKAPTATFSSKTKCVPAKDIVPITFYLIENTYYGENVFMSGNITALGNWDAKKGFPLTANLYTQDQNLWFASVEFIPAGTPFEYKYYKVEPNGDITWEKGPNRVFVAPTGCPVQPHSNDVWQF

On to aspergillopepsin I (enzyme), for which, in data set [1], the intact glucoamylase (ca. 70 kDa) on SDS-PAGE after overnight protease treatment at 4 °C is 100% and the intact glucoamylase (ca. 70 kDa) on SDS-PAGE after overnight protease treatment at 32 °C is 100%. Further, in data set [2], the intact glucoamylase (ca. 70 kDa) on SDS-PAGE after overnight protease treatment at 4 °C amounted to 100% and the intact glucoamylase (ca. 70 kDa) on SDS-PAGE after overnight protease treatment at 32 °C turned out to be 90%.

Take aspergillopepsin I: the “cleaved glucoamylase (ca. 60 kDa) on SDS-PAGE after overnight protease treatment at 32 °C” value in data set [3] is given as 10%.

In the case of aorsin, in data set [3], the “cleaved glucoamylase (ca. 60 kDa) on SDS-PAGE after overnight protease treatment at 4 °C” value was found to be 60% and the “cleaved glucoamylase (ca. 60 kDa) on SDS-PAGE after overnight protease treatment at 32 °C” value was found to be 90%.

aorsin (enzyme): in data set [1], the intact glucoamylase (ca. 70 kDa) on SDS-PAGE after overnight protease treatment at 4 °C worked out at 100% and the intact glucoamylase (ca. 70 kDa) on SDS-PAGE after overnight protease treatment at 32 °C is 100%. Further, in data set [2], the intact glucoamylase (ca. 70 kDa) on SDS-PAGE after overnight protease treatment at 4 °C was found to be 40% and the intact glucoamylase (ca. 70 kDa) on SDS-PAGE after overnight protease treatment at 32 °C worked out at 10%.
